Test results reported in paper PMC10033279.

Substrate: NC(=O)C1=CN([C@@H]2O[C@H](COP(=O)(O)OP(=O)(O)OC[C@H]3O[C@@H](n4cnc5c(N)ncnc54)[C@H](O)[C@@H]3O)[C@@H](O)[C@H]2O)C=CC1
Test: purified protein
Format: biochemical, Pseudomonas aeruginosa
Conditions: varied 1,4-benzoquinone, 20 mM KPi, 200 mM NaCl, pH 7.0, 25 °C

B1: NADH:quinone oxidoreductase (NQO), PA1024 (Pseudomonas aeruginosa PAO1) (protein)
chain: MGVFRTRFTETFGVEHPIMQGGMQWVGRAEMAAAVANAGGLATLSALTQPSPEALAAEIARCRELTDRPFGVNLTLLPTQKPVPYAEYRAAIIEAGIRVVETAGNDPGEHIAEFRRHGVKVIHKCTAVRHALKAERLGVDAVSIDGFECAGHPGEDDIPGLVLLPAAANRLRVPIIASGGFADGRGLVAALALGADAINMGTRFLATRECPIHPAVKAAIRAADERSTDLIMRSLRNTARVARNAISQEVLAIEARGGAGYADIAALVSGQRGRQVYQQGDTDLGIWSAGMVQGLIDDEPACAELLRDIVEQARQLVRQRLEGMLAGV
notes: full-length gene PA1024 in pET20b(+), expressed in E. coli Rosetta(DE3)pLysS, purified; EC 1.6.5.9
Km: 70 ± 10 µM
kcat: 27 ± 1 s⁻¹
